Data on two proteins can be found in article PMC5554173.

A short description of series [1]: spotting on 7H11 OADC plates. The settings on record: glycan lost.
For series [2] the following is noted: glycan lost.

B1: LprG (Rv1411c): LprG T231A (protein)
parent chain: MRTPRRHCRRIAVLAAVSIAATVVAGCSSGSKPSGGPLPDAKPLVEEATAQTKALKSAHMVLTVNGKIPGLSLKTLSGDLTTNPTAATGNVKLTLGGSDIDADFVVFDGILYATLTPNQWSDFGPAADIYDPAQVLNPDTGLANVLANFADAKAEGRDTINGQNTIRISGKVSAQAVNQIAPPFNATQPVPATVWIQETGDHQLAQAQLDRGSGNSVQMTLSKWGEKVQVTKPPVS
In the case of B1, the “other: colony formation on solid medium” value in series [1] is listed as “no change”.

B2: LprG (Rv1411c): lprG A691G (T231A) (protein)
parent chain: MRTPRRHCRRIAVLAAVSIAATVVAGCSSGSKPSGGPLPDAKPLVEEATAQTKALKSAHMVLTVNGKIPGLSLKTLSGDLTTNPTAATGNVKLTLGGSDIDADFVVFDGILYATLTPNQWSDFGPAADIYDPAQVLNPDTGLANVLANFADAKAEGRDTINGQNTIRISGKVSAQAVNQIAPPFNATQPVPATVWIQETGDHQLAQAQLDRGSGNSVQMTLSKWGEKVQVTKPPVS
For the protein B2, in series [2], the “other: invasion and growth in macrophages” value is “no change”.
